These results are taken from PMC6764681.

The target of assay [1] is Man5-enriched stabilized CH505TF.N279K.G458Y.SOSIP.664 Env trimer (made in 293S GnT1- cells) (HIV-1 clade C, strain CH505 transmitted/founder | HIV-1 clade A, strain BG505) (UniProt Q2N0S6).
The target of assay [2] is CH505TF.N279K.G458Y Env on pseudovirus produced in 293T cells (not Man5-enriched) (HIV-1 clade C, strain CH505 transmitted/founder).
The target in assay [3] is Man5-enriched CH505TF.G458Y Env on pseudovirus produced in 293S GnT1- cells (HIV-1 clade C, strain CH505 transmitted/founder). As to conditions: scale: fold less susceptible than the Man5-enriched double mutant.
For assay [4], the target named is Man5-enriched CH505TF.N279K Env on pseudovirus produced in 293S GnT1- cells (HIV-1 clade C, strain CH505 transmitted/founder). Particulars: scale: fold less susceptible than the Man5-enriched double mutant.
The target of assay [5] is Man5-enriched stabilized CH505TF.N279K.G458Y.SOSIP.664 Env trimer (made in 293S GnT1- cells) (HIV-1 clade C, strain CH505 transmitted/founder | HIV-1 clade A, strain BG505) (UniProt Q2N0S6). The experiment in a line: cryo-EM structure; trimer at 1 mg/ml incubated with 4-5-fold molar excess of CH235 UCA2 Fab for 30-60 minutes, 0.085 mM dodecyl-maltoside; C3 symmetry, 4.2 Å.

In assay [6] the target is CH235 UCA2 (unmutated common ancestor of the CH235/CH235.12 lineage), IgG. The experiment in a line: SPR. Particulars: apparent KD, average of two measurements.
Assay [7] deals with CH235 UCA2 (unmutated common ancestor of the CH235/CH235.12 lineage), IgG (human). The experiment in a line: SPR; Biacore 3000; CH235 UCA2 antibody captured (200-350 RU) by goat anti-human IgG Fc immobilised on a CM3 chip; SOSIP trimers 50-750 nM in HBS-EP+ injected 5 min at 50 ul/min, 10 min dissociation; 1:1 Langmuir model with local Rmax; apparent KD, average of two measurements. Background: Surface plasmon resonance follows binding to a sensor surface in real time, without labels.

Where [8] appears, read: trimer produced in Freestyle293 (293F) cells, parent: NB.
Where [9] appears, read: trimer produced in 293S GnT1- cells.

Sequence of CH235 UCA2 (unmutated common ancestor of the CH235/CH235.12 lineage), IgG (human) (heavy, as listed by the source, chain 1 of 2): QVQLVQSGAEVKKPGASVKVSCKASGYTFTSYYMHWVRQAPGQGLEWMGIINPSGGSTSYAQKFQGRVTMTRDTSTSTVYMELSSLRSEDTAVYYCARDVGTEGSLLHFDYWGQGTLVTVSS
Sequence of CH235 UCA2 (unmutated common ancestor of the CH235/CH235.12 lineage), IgG (human) (light, as listed by the source, chain 2 of 2): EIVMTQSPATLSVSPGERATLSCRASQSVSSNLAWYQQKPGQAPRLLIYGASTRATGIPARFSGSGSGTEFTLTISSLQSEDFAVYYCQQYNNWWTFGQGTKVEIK

“CH235 UCA2 (unmutated common ancestor of the CH235/CH235.12 lineage), IgG (antibody)” returned an IC50 of neutralization of Man5-enriched (293S GnT1-) CH505TF.N279K.G458Y Env-pseudotyped virus in TZM-bl cells (full-length Env on virus, not the SOSIP) in assay [1] of 0.04 µg/mL. In assay [2], this substance gave an IC50 of neutralization of CH505TF.N279K.G458Y Env-pseudotyped virus that was not Man5-enriched, in TZM-bl cells of 9.2 µg/mL. Also, the neutralization in TZM-bl cells: fold less susceptible than the Man5-enriched double mutant in assay [3] stood at 973; in assay [4], 92.
As for CH235 UCA2 Fab, in assay [5], the stoichiometry N (Fabs per Env trimer) is 3.
Take CH505TF SOSIP.664 v4.1 (293F) N279K: the Kd in assay [6] (setting [8]) was 154 nM.
Take “CH505TF SOSIP.664 v4.1 (293F) N279K; G458Y”: the Kd in assay [6] (setting [8]) turned out to be 83 nM.
For the substance “Man5-enriched stabilized CH505TF.N279K.G458Y.SOSIP.664 Env trimer (made in 293S GnT1- cells) (from UniProt Q2N0S6 1-860) (complex)”, the Kd in assay [7] stood at 9 nM.
“Man5-enriched stabilized parental CH505TF SOSIP.664 Env trimer (made in 293S GnT1- cells) (from UniProt Q2N0S6) G458Y”: the Kd in assay [6] (setting [9]) stood at 996 nM.
For the substance “Man5-enriched stabilized parental CH505TF SOSIP.664 Env trimer (made in 293S GnT1- cells) (from UniProt Q2N0S6) N279K”, in assay [6] (setting [9]), the Kd came out at 28 nM.
